Assay results reported in patent publication US20260242735A1 (UNIVERSIT T BASEL, published 2026).

Key:
[1] = molecular target: T1, human wild-type CD33 (human, UniProt P20138 18-364); assay: flow cytometry, IgG at 0.50 ug/ml on HEK293-T cells expressing CD33 against vector alone
T1 construct: also called SIGLEC3; P67
Method: (§1) Binding of the antibodies to the transfected cells and the optimal assay conditions were evaluated in 384-well format. Detection of cellular expression was measured via high-throughput flow cytometry. Serial dilutions of each antibody were tested for immunoreactivity against cells expressing CD33 or vector alone. The optimal screening concentration for each antibody was determined based on the raw signal values and signal-to-background calculations. Each point represents the mean of four replicates.

[2] = molecular target: human CD33 V25A (human, UniProt P20138 18-364); assay: flow cytometry, alanine scan
[3] = molecular target: human CD33 L35A (human, UniProt P20138 18-364); assay: flow cytometry, alanine scan
[4] = molecular target: human CD33 D18A (human, UniProt P20138 19-364); assay: flow cytometry, alanine scan
[5] = molecular target: human CD33 T42A (human, UniProt P20138 18-364); assay: flow cytometry, alanine scan
[6] = molecular target: human CD33 P40A (human, UniProt P20138 18-364); assay: flow cytometry, alanine scan
[7] = molecular target: human CD33 V37A (human, UniProt P20138 18-364); assay: flow cytometry, alanine scan
[8] = molecular target: human CD33 P19A (human, UniProt P20138 18-364); assay: flow cytometry, alanine scan
[9] = molecular target: human CD33 F43A (human, UniProt P20138 18-364); assay: flow cytometry, alanine scan
[10] = molecular target: human CD33 V39A (human, UniProt P20138 18-364); assay: flow cytometry, alanine scan
[11] = molecular target: human CD33 Q24A (human, UniProt P20138 18-364); assay: flow cytometry, alanine scan
[12] = molecular target: human CD33 F44A (human, UniProt P20138 18-364); assay: flow cytometry, alanine scan
[13] = molecular target: human CD33 G34A (human, UniProt P20138 18-364); assay: flow cytometry, alanine scan
[14] = molecular target: human CD33 L38A (human, UniProt P20138 18-364); assay: flow cytometry, alanine scan
[15] = molecular target: human CD33 C36A (human, UniProt P20138 18-364); assay: flow cytometry, alanine scan
[16] = molecular target: human CD33 H45A (human, UniProt P20138 18-364); assay: flow cytometry, alanine scan
[17] = molecular target: human CD33 W22A (human, UniProt P20138 18-364); assay: flow cytometry, alanine scan
[18] = molecular target: human CD33 L23A (human, UniProt P20138 18-364); assay: flow cytometry, alanine scan
[19] = molecular target: human CD33 N20A (human, UniProt P20138 18-364); assay: flow cytometry, alanine scan
[20] = molecular target: human CD33 E27A (human, UniProt P20138 18-364); assay: flow cytometry, alanine scan
[21] = molecular target: human CD33 Q26A (human, UniProt P20138 18-364); assay: flow cytometry, alanine scan
[22] = molecular target: human CD33 V31A (human, UniProt P20138 18-364); assay: flow cytometry, alanine scan
[23] = molecular target: human CD33 E33A (human, UniProt P20138 18-364); assay: flow cytometry, alanine scan
[24] = molecular target: human CD33 V29A (human, UniProt P20138 18-364); assay: flow cytometry, alanine scan
[25] = molecular target: human CD33 Q32A (human, UniProt P20138 18-364); assay: flow cytometry, alanine scan
[26] = molecular target: human CD33 T30A (human, UniProt P20138 18-364); assay: flow cytometry, alanine scan
[27] = molecular target: human CD33 S28A (human, UniProt P20138 18-364); assay: flow cytometry, alanine scan
[28] = molecular target: human CD33 C41A (human, UniProt P20138 18-364); assay: flow cytometry, alanine scan
[29] = molecular target: human CD33 F21A (human, UniProt P20138 18-364); assay: flow cytometry, alanine scan
[30] = molecular target: T1, human wild-type CD33; assay: flow cytometry, IgG at 0.25 ug/ml on HEK293-T cells expressing CD33 against vector alone
Method: as §1

[31] = molecular target: T1, human wild-type CD33; assay: flow cytometry, Fab at 0.25 ug/ml on HEK293-T cells expressing CD33 against vector alone
Method: (§2) Serial dilutions of each Fab were tested for immunoreactivity against cells expressing wild-type CD33 or vector alone. The optimal screening concentration for the Fabs was determined based on the raw signal values and signal-to-background calculations. Each point represents the mean of four replicates.

[32] = molecular target: T1, human wild-type CD33; assay: flow cytometry, IgG at 0.50 ug/ml on HEK293-T cells expressing CD33 against vector alone; remark: listed apart in the source
Method: as §1

[33] = molecular target: T1, human wild-type CD33; assay: flow cytometry, Fab at 0.25 ug/ml on HEK293-T cells expressing CD33 against vector alone; remark: listed apart in the source
Method: as §2

T1 sequence (P20138 18-364 limits assumed): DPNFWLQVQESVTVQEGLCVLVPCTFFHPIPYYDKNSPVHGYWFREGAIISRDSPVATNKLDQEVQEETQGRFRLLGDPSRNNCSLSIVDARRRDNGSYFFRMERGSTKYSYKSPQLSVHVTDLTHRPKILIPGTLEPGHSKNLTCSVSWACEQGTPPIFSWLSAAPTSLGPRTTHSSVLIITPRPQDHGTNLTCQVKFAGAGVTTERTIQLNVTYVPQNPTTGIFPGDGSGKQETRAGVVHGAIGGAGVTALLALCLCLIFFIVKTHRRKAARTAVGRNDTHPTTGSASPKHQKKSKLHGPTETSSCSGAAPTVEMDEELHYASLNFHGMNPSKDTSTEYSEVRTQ
Sequence of human CD33 F21A (P20138 18-364 F21A limits assumed): as the sequence (P20138 18-364 limits assumed) above, with F4A counted along it
Sequence of human CD33 V31A (P20138 18-364 V31A limits assumed): as the sequence (P20138 18-364 limits assumed) above, with V14A counted along it
Sequence of human CD33 E33A (P20138 18-364 E33A limits assumed): as the sequence (P20138 18-364 limits assumed) above, with E16A counted along it
Sequence of human CD33 G34A (P20138 18-364 G34A limits assumed): as the sequence (P20138 18-364 limits assumed) above, with G17A counted along it
Sequence of human CD33 L35A (P20138 18-364 L35A limits assumed): as the sequence (P20138 18-364 limits assumed) above, with L18A counted along it
Sequence of human CD33 S28A (P20138 18-364 S28A limits assumed): as the sequence (P20138 18-364 limits assumed) above, with S11A counted along it
Sequence of human CD33 D18A (P20138 18-364 D18A limits assumed): as the sequence (P20138 18-364 limits assumed) above, with D1A counted along it
Sequence of human CD33 P19A (P20138 18-364 P19A limits assumed): as the sequence (P20138 18-364 limits assumed) above, with P2A counted along it
Sequence of human CD33 V29A (P20138 18-364 V29A limits assumed): as the sequence (P20138 18-364 limits assumed) above, with V12A counted along it
Sequence of human CD33 N20A (P20138 18-364 N20A limits assumed): as the sequence (P20138 18-364 limits assumed) above, with N3A counted along it
Sequence of human CD33 W22A (P20138 18-364 W22A limits assumed): as the sequence (P20138 18-364 limits assumed) above, with W5A counted along it
Sequence of human CD33 V39A (P20138 18-364 V39A limits assumed): as the sequence (P20138 18-364 limits assumed) above, with V22A counted along it
Sequence of human CD33 Q32A (P20138 18-364 Q32A limits assumed): as the sequence (P20138 18-364 limits assumed) above, with Q15A counted along it
Sequence of human CD33 H45A (P20138 18-364 H45A limits assumed): as the sequence (P20138 18-364 limits assumed) above, with H28A counted along it
Sequence of human CD33 Q26A (P20138 18-364 Q26A limits assumed): as the sequence (P20138 18-364 limits assumed) above, with Q9A counted along it
Sequence of human CD33 F44A (P20138 18-364 F44A limits assumed): as the sequence (P20138 18-364 limits assumed) above, with F27A counted along it
Sequence of human CD33 T30A (P20138 18-364 T30A limits assumed): as the sequence (P20138 18-364 limits assumed) above, with T13A counted along it
Sequence of human CD33 C41A (P20138 18-364 C41A limits assumed): as the sequence (P20138 18-364 limits assumed) above, with C24A counted along it
Sequence of human CD33 L23A (P20138 18-364 L23A limits assumed): as the sequence (P20138 18-364 limits assumed) above, with L6A counted along it
Sequence of human CD33 T42A (P20138 18-364 T42A limits assumed): as the sequence (P20138 18-364 limits assumed) above, with T25A counted along it
Sequence of human CD33 F43A (P20138 18-364 F43A limits assumed): as the sequence (P20138 18-364 limits assumed) above, with F26A counted along it
Sequence of human CD33 Q24A (P20138 18-364 Q24A limits assumed): as the sequence (P20138 18-364 limits assumed) above, with Q7A counted along it
Sequence of human CD33 V25A (P20138 18-364 V25A limits assumed): as the sequence (P20138 18-364 limits assumed) above, with V8A counted along it
Sequence of human CD33 E27A (P20138 18-364 E27A limits assumed): as the sequence (P20138 18-364 limits assumed) above, with E10A counted along it
Sequence of human CD33 L38A (P20138 18-364 L38A limits assumed): as the sequence (P20138 18-364 limits assumed) above, with L21A counted along it
Sequence of human CD33 P40A (P20138 18-364 P40A limits assumed): as the sequence (P20138 18-364 limits assumed) above, with P23A counted along it
Sequence of human CD33 C36A (P20138 18-364 C36A limits assumed): as the sequence (P20138 18-364 limits assumed) above, with C19A counted along it
Sequence of human CD33 V37A (P20138 18-364 V37A limits assumed): as the sequence (P20138 18-364 limits assumed) above, with V20A counted along it

B1: Refmab #2 (antibody, human IgG1, V domains shown)
VH: QVQLVQSGAEVKKPGSSVKVSCKASGGTFSDYAISWVRQAPGQGLEWMGRIIPILGVADYAQKFQGRVTITADKSTRTAYMELSSLRSEDTAVYYCARNWADAFDIWGQGTMVTVSS
VL: DIQLTQSPSSLSASVGDRVTITCRASQGISSVLAWYQQKPGKAPKLLIYDASSLESGVPSRFSGSGSGTDFTLTISSLQPEDFATYYCQQFDSSITFGQGTKLEIK
notes: Full-length MAb format, human IgG1 Fc silent (PG-LALA)
- Signal:Background [1]: 59 signal:background ratio

B2: Refmab #5 (antibody, V domains shown)
VH: QVQLVQSGAEVKKPGASVKVSCKASGYTFTNYDINWVRQAPGQGLEWIGWIYPGDGSTKYNEKFKAKATLTADTSTSTAYMELRSLRSDDTAVYYCASGYEDAMDYWGQGTTVTVSS
VL: DIQMTQSPSSLSASVGDRVTINCKASQDINSYLSWFQQKPGKAPKTLIYRANRLVDGVPSRFSGSGSGQDYTLTISSLQPEDFATYYCLQYDEFPLTFGGGTKVEIK
notes: The alanine scan used IgG or Fab
- Mean % WT Binding [2]: 143 % of WT
- Mean % WT Binding [3]: 112 % of WT
- Mean % WT Binding [4]: 139 % of WT
- Mean % WT Binding [5]: 115 % of WT
- Mean % WT Binding [6]: 117 % of WT
- Mean % WT Binding [7]: 148 % of WT
- Mean % WT Binding [8]: 114 % of WT
- Mean % WT Binding [9]: 87.8 % of WT
- Mean % WT Binding [10]: 116 % of WT
- Mean % WT Binding [11]: 115 % of WT
- Mean % WT Binding [12]: 122 % of WT
- Mean % WT Binding [13]: 101 % of WT
- Mean % WT Binding [14]: 180 % of WT
- Mean % WT Binding [15]: 137 % of WT
- Mean % WT Binding [16]: 58.4 % of WT
- Mean % WT Binding [17]: 114 % of WT
- Mean % WT Binding [18]: 118 % of WT
- Mean % WT Binding [19]: 94.4 % of WT
- Mean % WT Binding [20]: 186 % of WT
- Mean % WT Binding [21]: 104 % of WT
- Mean % WT Binding [22]: 112 % of WT
- Mean % WT Binding [23]: 106 % of WT
- Mean % WT Binding [24]: 122 % of WT
- Mean % WT Binding [25]: 148 % of WT
- Mean % WT Binding [26]: 118 % of WT
- Mean % WT Binding [27]: 105 % of WT
- Mean % WT Binding [28]: 30.9 % of WT
- Mean % WT Binding [29]: 197 % of WT

B3: Refmab #5 (antibody, human IgG1, V domains shown)
VH: QVQLVQSGAEVKKPGASVKVSCKASGYTFTNYDINWVRQAPGQGLEWIGWIYPGDGSTKYNEKFKAKATLTADTSTSTAYMELRSLRSDDTAVYYCASGYEDAMDYWGQGTTVTVSS
VL: DIQMTQSPSSLSASVGDRVTINCKASQDINSYLSWFQQKPGKAPKTLIYRANRLVDGVPSRFSGSGSGQDYTLTISSLQPEDFATYYCLQYDEFPLTFGGGTKVEIK
notes: as for B1
- Signal:Background [30]: 37 signal:background ratio

B4: Refmab #1 Fab fragment (Fab, V domains shown)
VH: EVQLVQSGAEVKKPGSSVKVSCKASGYTITDSNIHWVRQAPGQSLEWIGYIYPYNGGTDYNQKFKNRATLTVDNPTNTAYMELSSLRSEDTAFYYCVNGNPWLAYWGQGTLVTVSS
VL: DIQLTQSPSTLSASVGDRVTITCRASESLDNYGIRFLTWFQQKPGKAPKLLMYAASNQGSGVPSRFSGSGSGTEFTLTISSLQPDDFATYYCQQTKEVPWSFGQGTKVEVK
- Signal:Background [31]: 33 signal:background ratio

B5: Refmab #6 (antibody, human IgG1, V domains shown)
VH: QVQLQQPGAEVVKPGASVKMSCKASGYTFTSYYIHWIKQTPGQGLEWVGVIYPGNDDISYNQKFQGKATLTADKSSTTAYMQLSSLTSEDSAVYYCAREVRLRYFDVWGQGTTVTVSS
VL: EIVLTQSPGSLAVSPGERVTMSCKSSQSVFFSSSQKNYLAWYQQIPGQSPRLLIYWASTRESGVPDRFTGSGSGTDFTLTISSVQPEDLAIYYCHQYLSSRTFGQGTKLEIK
notes: as for B1
- Signal:Background [32]: 57 signal:background ratio

B6: Refmab #6 Fab fragment (Fab, V domains shown)
VH: QVQLQQPGAEVVKPGASVKMSCKASGYTFTSYYIHWIKQTPGQGLEWVGVIYPGNDDISYNQKFQGKATLTADKSSTTAYMQLSSLTSEDSAVYYCAREVRLRYFDVWGQGTTVTVSS
VL: EIVLTQSPGSLAVSPGERVTMSCKSSQSVFFSSSQKNYLAWYQQIPGQSPRLLIYWASTRESGVPDRFTGSGSGTDFTLTISSVQPEDLAIYYCHQYLSSRTFGQGTKLEIK
- Signal:Background [33]: 51 signal:background ratio
